B1: Protein DDI1 homolog 1 (Homo sapiens), Q8WTU0 (parent)
chain: MLITVYCVRRDLSEVTFSLQVSPDFELRNFKVLCEAESRVPVEEIQIIHMERLLIEDHCSLGSYGLKDGDIVVLLQKDNVGPRAPGRAPNQPRVDFSGIAVPGTSSSRPQHPGQQQQRTPAAQRSQGLASGEKVAGLQGLGSPALIRSMLLSNPHDLSLLKERNPPLAEALLSGSLETFSQVLMEQQREKALREQERLRLYTADPLDREAQAKIEEEIRQQNIEENMNIAIEEAPESFGQVTMLYINCKVNGHPLKAFVDSGAQMTIMSQACAERCNIMRLVDRRWAGVAKGVGTQRIIGRVHLAQIQIEGDFLQCSFSILEDQPMDMLLGLDMLRRHQCSIDLKKNVLVIGTTGTQTYFLPEGELPLCSRMVSGQDESSDKEITHSVMDSGRKEH
partner: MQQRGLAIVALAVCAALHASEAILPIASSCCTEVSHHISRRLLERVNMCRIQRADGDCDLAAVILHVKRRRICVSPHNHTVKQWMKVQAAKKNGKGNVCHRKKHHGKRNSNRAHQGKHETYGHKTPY
B2: Alpha-taxilin (Homo sapiens), P40222 (parent)
chain: MKNQDKKNGAAKQSNPKSSPGQPEAGPEGAQERPSQAAPAVEAEGPGSSQAPRKPEGAQARTAQSGALRDVSEELSRQLEDILSTYCVDNNQGGPGEDGAQGEPAEPEDAEKSRTYVARNGEPEPTPVVNGEKEPSKGDPNTEEIRQSDEVGDRDHRRPQEKKKAKGLGKEITLLMQTLNTLSTPEEKLAALCKKYAELLEEHRNSQKQMKLLQKKQSQLVQEKDHLRGEHSKAVLARSKLESLCRELQRHNRSLKEEGVQRAREEEEKRKEVTSHFQVTLNDIQLQMEQHNERNSKLRQENMELAERLKKLIEQYELREEHIDKVFKHKDLQQQLVDAKLQQAQEMLKEAEERHQREKDFLLKEAVESQRMCELMKQQETHLKQQLALYTEKFEEFQNTLSKSSEVFTTFKQEMEKMTKKIKKLEKETTMYRSRWESSNKALLEMAEEKTVRDKELEGLQVKIQRLEKLCRALQTERNDLNKRVQDLSAGGQGSLTDSGPERRPEGPGAQAPSSPRVTEAPCYPGAPSTEASGQTGPQEPTSARA
partner: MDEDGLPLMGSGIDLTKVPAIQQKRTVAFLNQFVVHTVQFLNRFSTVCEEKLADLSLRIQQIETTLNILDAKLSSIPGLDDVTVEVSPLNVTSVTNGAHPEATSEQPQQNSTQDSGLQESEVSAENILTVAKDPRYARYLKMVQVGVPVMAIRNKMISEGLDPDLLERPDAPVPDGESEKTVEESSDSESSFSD
B3: Calcium-binding and coiled-coil domain-containing protein 2 (Homo sapiens), Q13137 (parent)
chain: MEETIKDPPTSAVLLDHCHFSQVIFNSVEKFYIPGGDVTCHYTFTQHFIPRRKDWIGIFRVGWKTTREYYTFMWVTLPIDLNNKSAKQQEVQFKAYYLPKDDEYYQFCYVDEDGVVRGASIPFQFRPENEEDILVVTTQGEVEEIEQHNKELCKENQELKDSCISLQKQNSDMQAELQKKQEELETLQSINKKLELKVKEQKDYWETELLQLKEQNQKMSSENEKMGIRVDQLQAQLSTQEKEMEKLVQGDQDKTEQLEQLKKENDHLFLSLTEQRKDQKKLEQTVEQMKQNETTAMKKQQELMDENFDLSKRLSENEIICNALQRQKERLEGENDLLKRENSRLLSYMGLDFNSLPYQVPTSDEGGARQNPGLAYGNPYSGIQESSSPSPLSIKKCPICKADDICDHTLEQQQMQPLCFNCPICDKIFPATEKQIFEDHVFCHSL
partner: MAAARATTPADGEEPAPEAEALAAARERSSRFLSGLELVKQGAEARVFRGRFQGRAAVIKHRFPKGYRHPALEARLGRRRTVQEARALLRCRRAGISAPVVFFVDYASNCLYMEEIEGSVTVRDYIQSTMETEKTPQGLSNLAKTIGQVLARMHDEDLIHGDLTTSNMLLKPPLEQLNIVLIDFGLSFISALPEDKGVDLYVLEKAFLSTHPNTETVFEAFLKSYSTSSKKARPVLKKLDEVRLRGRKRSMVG
B4: Phosphatidylinositol-3-phosphate phosphatase MTMR7 (Homo sapiens), Q9Y216 (parent)
chain: MEHIRTPKVENVRLVDRVSPKKAALGTLYLTATHVIFVENSPDPRKETWILHSQISTIEKQATTATGCPLLIRCKNFQIIQLIIPQERDCHDVYISLIRLARPVKYEELYCFSFNPMLDKEEREQGWVLIDLSEEYTRMGLPNHYWQLSDVNRDYRVCDSYPTELYVPKSATAHIIVGSSKFRSRRRFPVLSYYYKDNHASICRSSQPLSGFSARCLEDEQMLQAIRKANPGSDFVYVVDTRPKLNAMANRAAGKGYENEDNYSNIKFQFIGIENIHVMRNSLQKMLEVCELKSPSMSDFLWGLENSGWLRHIKAIMDAGIFIAKAVSEEGASVLVHCSDGWDRTAQVCSVASLLLDPHYRTLKGFMVLIEKDWISFGHKFNHRYGNLDGDPKEISPVIDQFIECVWQLMEQFPCAFEFNERFLIHIQHHIYSCQFGNFLCNSQKERRELKIQERTYSLWAHLWKNRADYLNPLFRADHSQTQGTLHLPTTPCNFMYKFWSGMYNRFEKGMQPRQSVTDYLMAVKEETQQLEEELEALEERLEKIQKVQLNCTKVKSKQSEPSKHSGFSTSDNSIANTPQDYSGNMKSFPSRSPSQGDEDSALILTQDNLKSSDPDLSANSDQESGVEDLSCRSPSGGEHAPSEDSGKDRDSDEAVFLTA
partner: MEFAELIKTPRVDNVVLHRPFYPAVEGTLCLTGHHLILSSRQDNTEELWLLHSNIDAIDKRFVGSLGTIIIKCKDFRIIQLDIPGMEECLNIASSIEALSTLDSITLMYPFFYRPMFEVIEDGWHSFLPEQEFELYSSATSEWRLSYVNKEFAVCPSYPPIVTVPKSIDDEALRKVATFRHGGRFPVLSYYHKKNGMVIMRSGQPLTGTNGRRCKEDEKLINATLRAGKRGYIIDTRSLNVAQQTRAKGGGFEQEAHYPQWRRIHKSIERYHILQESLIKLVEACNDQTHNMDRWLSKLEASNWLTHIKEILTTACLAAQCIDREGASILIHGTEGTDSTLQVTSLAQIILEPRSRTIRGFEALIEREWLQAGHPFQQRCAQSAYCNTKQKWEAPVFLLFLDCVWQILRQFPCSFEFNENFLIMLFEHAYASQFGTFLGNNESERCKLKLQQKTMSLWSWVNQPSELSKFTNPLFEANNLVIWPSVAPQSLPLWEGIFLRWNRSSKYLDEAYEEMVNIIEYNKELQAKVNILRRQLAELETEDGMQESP
B5: Protein LDOC1 (Homo sapiens), O95751 (parent)
chain: MVDELVLLLHALLMRHRALSIENSQLMEQLRLLVCERASLLRQVRPPSCPVPFPETFNGESSRLPEFIVQTASYMLVNENRFCNDAMKVAFLISLLTGEAEEWVVPYIEMDSPILGDYRAFLDEMKQCFGWDDDEDDDDEEEEDDY
partner: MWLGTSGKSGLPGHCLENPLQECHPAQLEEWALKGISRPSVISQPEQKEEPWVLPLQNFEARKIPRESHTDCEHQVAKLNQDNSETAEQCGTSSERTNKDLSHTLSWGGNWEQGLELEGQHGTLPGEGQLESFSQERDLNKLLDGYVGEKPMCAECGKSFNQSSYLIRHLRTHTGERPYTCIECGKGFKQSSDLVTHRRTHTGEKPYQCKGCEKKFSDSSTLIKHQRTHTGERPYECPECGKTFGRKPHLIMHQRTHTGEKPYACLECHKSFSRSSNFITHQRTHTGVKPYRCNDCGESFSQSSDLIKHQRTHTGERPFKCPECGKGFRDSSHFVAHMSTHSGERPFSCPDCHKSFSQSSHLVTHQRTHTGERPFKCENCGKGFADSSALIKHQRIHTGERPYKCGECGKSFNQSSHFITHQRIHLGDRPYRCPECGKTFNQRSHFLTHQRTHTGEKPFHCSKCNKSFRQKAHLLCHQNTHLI
B6: Glutathione S-transferase omega-2 (Homo sapiens), Q9H4Y5 (parent)
chain: MSGDATRTLGKGSQPPGPVPEGLIRIYSMRFCPYSHRTRLVLKAKDIRHEVVNINLRNKPEWYYTKHPFGHIPVLETSQCQLIYESVIACEYLDDAYPGRKLFPYDPYERARQKMLLELFCKVPHLTKECLVALRCGRECTNLKAALRQEFSNLEEILEYQNTTFFGGTCISMIDYLLWPWFERLDVYGILDCVSHTPALRLWISAMKWDPTVCALLMDKSIFQGFLNLYFQNNPNAFDFGLC

Variants of: B1
Conditions: with ccl28_human CCL28, Q9NRJ3

Row | effect of a mutation on the interaction | Variant
1 | with no effect | N228T
2 | with no effect | D323N

The remaining lines, values behind:

Row | Variant | effect of a mutation on the interaction
3 | R208G | disrupting interaction strength
4 | S63A | with no effect
5 | G136S | with no effect

Variants of: B2
Conditions: with wasc3_human WASHC3, Q9Y3C0

Row | effect of a mutation on the interaction | Variant
6 | with no effect | S514R
7 | with no effect | P541S

Variants of: B3
Conditions: with prpk_human TP53RK

Row | effect of a mutation on the interaction | Variant
8 | with no effect | V248A

Variants of: B4
Conditions: with mtmr9_human MTMR9, Q96QG7

Row | effect of a mutation on the interaction | Variant
9 | with no effect | M522T

Variants of: B5
Conditions: with zn774_human ZNF774, Q6NX45

Row | effect of a mutation on the interaction | Variant
10 | disrupting interaction strength | L12H

Variants of: B6
Conditions: with ap2a_human TFAP2A

Row | effect of a mutation on the interaction | Variant
11 | with no effect | N142D

Source: IntAct's records for PubMed 31515488
